These are literature values, as cited in publication PMC9464413.

In the data set the target is p97 (Homo sapiens) (UniProt P55072). The data set can be described thus: SPR.
UniProt P55072, sequence (P55072 2-806): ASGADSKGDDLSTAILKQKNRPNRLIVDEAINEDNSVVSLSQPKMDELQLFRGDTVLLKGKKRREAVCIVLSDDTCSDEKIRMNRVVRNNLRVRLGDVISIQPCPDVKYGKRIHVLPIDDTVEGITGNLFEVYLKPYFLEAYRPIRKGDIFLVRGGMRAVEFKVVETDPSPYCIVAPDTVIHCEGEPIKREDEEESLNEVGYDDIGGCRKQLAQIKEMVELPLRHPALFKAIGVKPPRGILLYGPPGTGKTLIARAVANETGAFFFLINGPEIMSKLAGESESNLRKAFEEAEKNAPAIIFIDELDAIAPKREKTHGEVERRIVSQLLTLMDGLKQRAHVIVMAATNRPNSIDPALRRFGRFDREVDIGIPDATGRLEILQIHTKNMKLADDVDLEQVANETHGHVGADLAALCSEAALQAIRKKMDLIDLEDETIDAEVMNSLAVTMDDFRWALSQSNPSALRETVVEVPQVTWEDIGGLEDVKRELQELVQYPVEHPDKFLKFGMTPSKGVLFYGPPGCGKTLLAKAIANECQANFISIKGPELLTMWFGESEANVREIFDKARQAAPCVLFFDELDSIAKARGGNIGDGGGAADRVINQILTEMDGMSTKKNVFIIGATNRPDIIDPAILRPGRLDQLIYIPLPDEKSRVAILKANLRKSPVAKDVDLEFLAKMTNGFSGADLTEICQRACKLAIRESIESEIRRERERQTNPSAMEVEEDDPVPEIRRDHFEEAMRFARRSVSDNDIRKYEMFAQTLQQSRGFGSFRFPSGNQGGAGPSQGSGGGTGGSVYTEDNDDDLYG

By Kd is commonly meant the concentration at which binding is half-saturated. On to p37 (from UniProt Q14CS0), for which the Kd is 29 nM.
p47 (from UniProt Q9UNZ2): the Kd is 20 nM.
